Consider one sequence from patent publication US20140322759.

By Kd is commonly meant the free concentration of one partner at which half of the binding sites on the other are occupied at equilibrium, for simple one-to-one binding.

Substitutions are numbered along the chain they refer to.

Test in all cases: EMSA
On the technique in general: In EMSA bound probe runs differently from free probe, usually more slowly.

For data set [1], the target named is T1, phi29 DNA polymerase V51A V51A (Bacillus phage phi29) (UniProt P03680).
T1 sequence: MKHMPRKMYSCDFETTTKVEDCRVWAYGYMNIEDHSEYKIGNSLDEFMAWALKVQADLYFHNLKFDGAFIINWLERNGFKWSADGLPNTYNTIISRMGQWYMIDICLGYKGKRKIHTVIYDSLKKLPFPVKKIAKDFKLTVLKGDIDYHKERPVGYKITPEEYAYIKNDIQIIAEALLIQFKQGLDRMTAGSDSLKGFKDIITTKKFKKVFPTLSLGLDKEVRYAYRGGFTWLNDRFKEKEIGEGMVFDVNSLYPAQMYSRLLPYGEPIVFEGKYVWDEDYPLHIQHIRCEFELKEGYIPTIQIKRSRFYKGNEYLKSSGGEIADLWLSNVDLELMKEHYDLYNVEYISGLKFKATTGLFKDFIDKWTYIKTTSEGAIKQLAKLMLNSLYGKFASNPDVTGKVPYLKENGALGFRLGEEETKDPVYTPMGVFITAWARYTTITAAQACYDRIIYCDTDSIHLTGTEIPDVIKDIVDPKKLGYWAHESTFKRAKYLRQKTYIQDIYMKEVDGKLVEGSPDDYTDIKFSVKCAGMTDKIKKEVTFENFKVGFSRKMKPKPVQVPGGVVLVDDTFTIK
The note with it: SD 10.8; unit not given (μM in assay); pH 7.9, 66 mM K-acetate, 30 C.

Data set [2] has as its target T2, phi29 DNA polymerase E221K E221K (Bacillus phage phi29) (UniProt P03680).
T2 sequence: T1 sequence with A51V, E221K
The following applies: SD 18.4; unit not given (μM in assay); pH 7.9, 66 mM K-acetate, 30 C.

The target in data set [3] is T3, phi29 DNA polymerase K512E K512E (Bacillus phage phi29) (UniProt P03680).
T3 sequence: T1 sequence with A51V, K512E
The following applies: SD 27.6; unit not given (μM in assay); pH 7.9, 66 mM K-acetate, 30 C.

The target in data set [4] is T4, phi29 DNA polymerase M97T M97T (Bacillus phage phi29) (UniProt P03680).
T4 sequence: T1 sequence with A51V, M97T
The note with it: SD 2.5; unit not given (μM in assay); pH 7.9, 66 mM K-acetate, 30 C.

As for “GATCACAGTGAGTAC / TCTATTGTACTCACTGTGATC [15-mer/21-mer primer/template]”, the dissociation constant Kd worked out at 52 µM in data set [1], 67 µM in data set [2], 54 µM in data set [3] and 37 µM in data set [4].
